Reference: patent publication US20070054353A1, “Nuclear receptor transcriptional corepressor and uses thereof” (priority 2002, published 2007)

T1: GR (Homo sapiens, UniProt P04150)
T1 construct: expressed in transfected cells; host or cells: COS-7
T1 sequence (P04150 1-777): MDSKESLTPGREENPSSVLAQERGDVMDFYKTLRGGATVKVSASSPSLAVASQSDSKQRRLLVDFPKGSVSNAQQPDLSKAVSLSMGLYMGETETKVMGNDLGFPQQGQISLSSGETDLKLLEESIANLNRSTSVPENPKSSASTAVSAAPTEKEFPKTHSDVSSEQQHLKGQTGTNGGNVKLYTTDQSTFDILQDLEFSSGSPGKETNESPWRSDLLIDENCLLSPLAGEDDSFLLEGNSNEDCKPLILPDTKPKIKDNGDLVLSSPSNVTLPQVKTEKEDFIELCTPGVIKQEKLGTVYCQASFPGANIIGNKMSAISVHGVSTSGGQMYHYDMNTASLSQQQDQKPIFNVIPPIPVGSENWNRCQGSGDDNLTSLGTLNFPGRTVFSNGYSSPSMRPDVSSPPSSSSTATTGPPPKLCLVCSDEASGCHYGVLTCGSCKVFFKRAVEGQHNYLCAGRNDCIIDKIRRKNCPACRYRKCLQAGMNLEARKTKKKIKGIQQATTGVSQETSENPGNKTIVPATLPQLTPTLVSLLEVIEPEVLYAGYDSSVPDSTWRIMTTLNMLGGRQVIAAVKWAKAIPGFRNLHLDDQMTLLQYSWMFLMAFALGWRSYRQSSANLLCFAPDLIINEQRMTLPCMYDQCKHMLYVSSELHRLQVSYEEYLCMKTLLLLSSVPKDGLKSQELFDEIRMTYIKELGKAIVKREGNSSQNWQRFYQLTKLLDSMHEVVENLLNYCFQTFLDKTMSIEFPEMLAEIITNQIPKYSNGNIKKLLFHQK

T2: ERα (Homo sapiens, UniProt P03372)
T2 construct: expressed in transfected cells; host or cells: COS-7
T2 sequence (P03372 1-595): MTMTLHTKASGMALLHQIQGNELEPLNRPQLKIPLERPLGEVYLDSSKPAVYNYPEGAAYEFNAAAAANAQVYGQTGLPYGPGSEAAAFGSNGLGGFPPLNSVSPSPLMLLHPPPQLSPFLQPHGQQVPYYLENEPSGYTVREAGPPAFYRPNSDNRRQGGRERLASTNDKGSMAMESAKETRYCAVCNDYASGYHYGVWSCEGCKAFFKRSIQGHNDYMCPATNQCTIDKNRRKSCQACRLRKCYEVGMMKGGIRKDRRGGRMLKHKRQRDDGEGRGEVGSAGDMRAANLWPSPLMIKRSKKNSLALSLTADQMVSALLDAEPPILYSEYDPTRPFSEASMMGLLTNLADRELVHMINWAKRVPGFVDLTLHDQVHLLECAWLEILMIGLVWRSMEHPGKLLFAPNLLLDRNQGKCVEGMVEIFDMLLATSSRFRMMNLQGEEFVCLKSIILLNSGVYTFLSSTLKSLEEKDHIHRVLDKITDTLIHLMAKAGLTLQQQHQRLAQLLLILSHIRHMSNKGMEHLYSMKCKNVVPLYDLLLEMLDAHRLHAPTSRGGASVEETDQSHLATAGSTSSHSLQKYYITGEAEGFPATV

T3: PR (Homo sapiens, UniProt P06401)
T3 construct: expressed in transfected cells; host or cells: COS-7
T3 sequence (P06401 1-933): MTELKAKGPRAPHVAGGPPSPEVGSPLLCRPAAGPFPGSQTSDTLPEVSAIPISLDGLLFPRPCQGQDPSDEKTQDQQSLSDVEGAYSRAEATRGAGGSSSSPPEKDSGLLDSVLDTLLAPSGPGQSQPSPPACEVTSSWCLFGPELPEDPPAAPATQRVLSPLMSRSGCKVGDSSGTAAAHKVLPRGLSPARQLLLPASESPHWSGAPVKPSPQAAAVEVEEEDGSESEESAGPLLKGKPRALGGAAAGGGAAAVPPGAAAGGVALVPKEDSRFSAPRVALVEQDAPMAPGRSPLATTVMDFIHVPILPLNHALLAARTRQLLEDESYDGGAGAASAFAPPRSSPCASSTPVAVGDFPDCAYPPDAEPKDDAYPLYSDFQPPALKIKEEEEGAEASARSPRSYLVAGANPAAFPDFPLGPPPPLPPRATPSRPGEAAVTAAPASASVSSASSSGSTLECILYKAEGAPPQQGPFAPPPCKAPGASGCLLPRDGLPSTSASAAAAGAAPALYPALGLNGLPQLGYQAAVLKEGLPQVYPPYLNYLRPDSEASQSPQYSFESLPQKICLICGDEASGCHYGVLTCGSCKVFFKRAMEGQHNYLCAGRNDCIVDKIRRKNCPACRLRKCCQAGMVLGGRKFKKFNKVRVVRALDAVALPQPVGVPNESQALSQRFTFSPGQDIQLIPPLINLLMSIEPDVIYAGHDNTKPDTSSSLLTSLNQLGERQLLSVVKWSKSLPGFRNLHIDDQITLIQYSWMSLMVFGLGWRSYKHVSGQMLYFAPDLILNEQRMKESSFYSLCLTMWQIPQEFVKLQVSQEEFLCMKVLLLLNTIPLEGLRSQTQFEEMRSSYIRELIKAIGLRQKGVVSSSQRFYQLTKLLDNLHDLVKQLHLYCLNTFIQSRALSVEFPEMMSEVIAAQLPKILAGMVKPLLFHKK

T4: VDR (Homo sapiens, UniProt P11473)
T4 construct: expressed in transfected cells; host or cells: COS-7
T4 sequence (P11473 1-427): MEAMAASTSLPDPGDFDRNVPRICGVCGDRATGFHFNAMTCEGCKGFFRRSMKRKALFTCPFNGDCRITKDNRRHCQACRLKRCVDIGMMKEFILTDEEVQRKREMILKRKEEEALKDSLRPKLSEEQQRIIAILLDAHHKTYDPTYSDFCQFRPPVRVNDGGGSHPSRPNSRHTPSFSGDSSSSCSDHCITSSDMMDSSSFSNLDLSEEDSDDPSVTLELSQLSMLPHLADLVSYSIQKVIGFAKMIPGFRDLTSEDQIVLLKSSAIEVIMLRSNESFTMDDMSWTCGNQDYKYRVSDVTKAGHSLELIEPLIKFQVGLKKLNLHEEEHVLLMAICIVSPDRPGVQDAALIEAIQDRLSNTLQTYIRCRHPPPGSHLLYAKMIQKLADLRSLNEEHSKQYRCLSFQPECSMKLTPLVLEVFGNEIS

T5: interaction of LCoR and ERα (Homo sapiens, UniProt P03372)
T5 construct: expressed in transfected cells; host or cells: COS-7
T5 sequence (P03372 1-595): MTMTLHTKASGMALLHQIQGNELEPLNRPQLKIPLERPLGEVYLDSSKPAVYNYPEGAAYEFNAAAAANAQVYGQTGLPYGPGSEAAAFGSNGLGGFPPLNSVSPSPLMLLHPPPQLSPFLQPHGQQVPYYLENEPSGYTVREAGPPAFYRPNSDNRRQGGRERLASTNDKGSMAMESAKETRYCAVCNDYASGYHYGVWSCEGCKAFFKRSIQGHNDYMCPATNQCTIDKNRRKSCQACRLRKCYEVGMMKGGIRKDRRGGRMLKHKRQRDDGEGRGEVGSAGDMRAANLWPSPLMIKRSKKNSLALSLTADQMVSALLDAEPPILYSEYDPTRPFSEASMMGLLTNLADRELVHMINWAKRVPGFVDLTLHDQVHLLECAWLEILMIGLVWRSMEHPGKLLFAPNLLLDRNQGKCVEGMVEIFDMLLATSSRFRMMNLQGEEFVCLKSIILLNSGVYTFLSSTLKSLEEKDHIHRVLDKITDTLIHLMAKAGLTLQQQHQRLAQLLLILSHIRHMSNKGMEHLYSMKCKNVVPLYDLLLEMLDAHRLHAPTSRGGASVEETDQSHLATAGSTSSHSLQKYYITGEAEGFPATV


Legend:
Type in all cases: cell-based
GR = molecular target: T1, GR; test: Transient transfection luciferase reporter, GR transactivation in COS-7 cells; conditions: 1 μg of transfected LCoR, COS-7; one range given for GR, PR and VDR together
Experimental: (§1) All cell lines were cultured under the recommended conditions. COS-7 cells grown in […] in DMEM without phenol red, supplemented with 10% FBS were transfected in medium without serum with lipofectamine 2000 (Invitrogen, Burlington, Ont.) with 100 ng of nuclear receptor expression vectors as indicated, 200 ng of TIF-2 or TIF-2.1, as indicated, 250 ng of reporter plasmid, 250 ng of infemal control vector pCMV-βgal, and various concentrations of LCoR/pSG5 or LCoR-LSKAA/pSG5 expression vectors and pSG5 carrier. Medium was replaced 24 h after transfection by a medium containing charcoal-stripped serum and ligand (100 nM) and TSA (3 μM) for 18 h, as indicated. Cells were harvested in 200 […] of reporter lysis buffer (Promega).
(§2) COS-7 cells were cotransfected with expression vectors for ERα HEG0 (A and C) or GR (D) or PR (F) or VDR (H), ERE3-TATA-pXP2 (A and C), GRE5/pXP2 (D and F) or VDRE3tk/pXP2 (H) luciferase reporter vectors, pCMV-β-gal as internal control, and LCoR/pSG5 or LSKAA/pSG5 expression vectors as indicated. Cells were treated with 10^−7M of hormones (solid bars) or vehicle (open bars). Normalized luciferase activities (RLU) are the means±SEM from at least 3 experiments. […] Cells were transfected as in FIG. 5A with LCoR, TIF-2 or TIF2.1 as indicated. […]

nuclear receptors = test: Ligand-dependent transactivation by nuclear receptors (summary)
Experimental: as §1, §2

ERα = molecular target: T2, ERα; test: Transient transfection luciferase reporter, ERα transactivation in COS-7 cells; conditions: coexpression in COS-7 cells, 10^−7M hormone, ERE3-TATA-pXP2 reporter
Experimental: as §1, §2

PR = molecular target: T3, PR; test: Transient transfection luciferase reporter, PR transactivation in COS-7 cells; conditions: 1 μg of transfected LCoR, COS-7; one range given for GR, PR and VDR together
Experimental: as §1, §2

5×17 mer-tk promoter = test: GAL4-LCoR repression of 5×17 mer-tk promoter in COS-7 cells
Experimental: as §1, §2

VDR = molecular target: T4, VDR; test: Transient transfection luciferase reporter, VDR transactivation in COS-7 cells; conditions: 1 μg of transfected LCoR, COS-7; one range given for GR, PR and VDR together
Experimental: as §1, §2

[1] = molecular target: T5, interaction of LCoR and ERα; test: BRET assay of LCoR-ERα interaction in living COS-7 cells; conditions: rluc-LCoR-LSKAA versus rluc-LCoR, COS-7 cells
Experimental: Readings were started immediately after coelenterazine H addition, and 10 repeated measures were taken.
Interaction of ERα and LCoR in vivo was further tested by bioluminescence resonance energy transfer (BRET) in living COS-7 cells transiently cotransfected with plasmids expressing ERα-EYFP and LCoR-rluc fusion proteins. […] BRET ratios were calculated as described in experimental procedures.

Molecule	repression of ligand-activated transcription, glucocorticoid receptor (GR)	inhibition of ligand-dependent transactivation by nuclear receptors (nuclear receptors)	repression of hormone-dependent transactivation by ERα (ERα)	repression of ligand-activated transcription, progesterone receptor (PR)	effect on the 5×17 mer-tk promoter (5×17 mer-tk promoter)	repression of ligand-activated transcription, vitamin D receptor (VDR)	effect of NR box mutation on interaction with ERα (BRET) [1]
LCoR: novel 433 amino acid nuclear receptor corepressor polypeptide (SEQ ID NO:2) with a single LXXLL NR box (protein, listed as Homo sapiens) MQRMIQQFAAEYTSKNSSTQDPSQPNSTKNQSLPKASPVTTSPTAATTQNPVLSKLLMADQDSPLDLTVRKSQSEPSEQDGVLDLSTKKSPCAGSTSLSHSPGCSSTQGNGRPGRPSQYRPDGLRSGDGVPPRSLQDGTREGFGHSTSLKVPLARSLQISEELLSRNQLSTAASLGPSGLQNHGQHLILSREASWAKPHYEFNLSRMKFRGNGALSNISDLPFLAENSAFPKMALQAKQDGKKDVSHSSPVDLKIPQVRGMDLSWESRTGDQYSYSSLVMGSQTESALSKKLRAILPKQSRKSMLDAGPDSWGSDAEQSTPGQPYPTSDQEGDPGSKQPRKKRGRYRQYNSEILEEAISVVMSGKMSVSKAQSIYGIPHSTLEYKVKERLGTLKNPPKKKMKLMRSEGPDVSVKIELDPQGEAAQSANESKNE	2.2-5 fold	up to 5 fold	dose-dependent repression	2.2-5 fold	had no effect	2.2-5 fold	–
LCoR-LSKAA: LCoR with point mutagenesis of NR box LSKLL to LSKAA at position 53 (protein) MQRMIQQFAAEYTSKNSSTQDPSQPNSTKNQSLPKASPVTTSPTAATTQNPVLSKAAMADQDSPLDLTVRKSQSEPSEQDGVLDLSTKKSPCAGSTSLSHSPGCSSTQGNGRPGRPSQYRPDGLRSGDGVPPRSLQDGTREGFGHSTSLKVPLARSLQISEELLSRNQLSTAASLGPSGLQNHGQHLILSREASWAKPHYEFNLSRMKFRGNGALSNISDLPFLAENSAFPKMALQAKQDGKKDVSHSSPVDLKIPQVRGMDLSWESRTGDQYSYSSLVMGSQTESALSKKLRAILPKQSRKSMLDAGPDSWGSDAEQSTPGQPYPTSDQEGDPGSKQPRKKRGRYRQYNSEILEEAISVVMSGKMSVSKAQSIYGIPHSTLEYKVKERLGTLKNPPKKKMKLMRSEGPDVSVKIELDPQGEAAQSANESKNE	–	–	had no effect	–	–	–	largely disrupted hormone-dependent interaction and reduced hormone-independent interaction of the two proteins by approximately two-fold
